Values of other authors, collected in US20220184236A1, “NANOPARTICLE, CONTRAST AGENT FOR MAGNETIC RESONANCE IMAGING COMPRISING SAME AND ZWITTERIONIC LIGAND COMPOUND” (ASTELLAS PHARMA INC., priority 2018, published 2022).

Conditions: authentic sample, stated size

B1: ovalbumin (protein, UniProt P01012 2-386, looked up)
Ovalbumin: GSIGAASMEFCFDVFKELKVHHANENIFYCPIAIMSALAMVYLGAKDSTRTQINKVVRFDKLPGFGDSIEAQCGTSVNVHSSLRDILNQITKPNDVYSFSLASRLYAEERYPILPEYLQCVKELYRGGLEPINFQTAADQARELINSWVESQTNGIIRNVLQPSSVDSQTAMVLVNAIVFKGLWEKAFKDEDTQAMPFRVTEQESKPVQMMYQIGLFRVASMASEKMKILELPFASGTMSMLVLLPDEVSGLEQLESIINFEKLTEWTSSNVMEERKIKVYLPRMKMEEKYNLTSVLMAMGITDVFSSSANLSGISSAESLKISQAVHAAHAEINEAGREVVGSAEAGVDAASVSEEFRADHPFLFCIKHIATNAVLFFGRCVSP
notes: authentic sample for SEC, particle size 6.1 nm
Question: Which particle size does the source give for B1 here?
Answer: 6.1 nm
